Assay results: patent US20220332795A1 (ARO BIOTHERAPEUTICS, published 2022)

Experiments:
[1] = biological target: T1, recombinant biotinylated human CD71 extracellular domain (human, UniProt P02786 89-760, biotinylated); assay: solution ELISA
T1 construct: extracellular domain; also called hCD71; huCD71 ECD

CD71 apical domain [2] = biological target: T2, CD71 apical domain (UniProt P02786 189-383, limits assumed); assay: solution ELISA
T2 construct: domain: Apical domain

[3] = biological target: T1, recombinant biotinylated human CD71 …; assay: solution ELISA, signal ratio to HSA
CD71 apical domain [4] = biological target: T2, CD71 apical domain; assay: solution ELISA, signal ratio to HSA

T2 sequence (P02786 189-383 limits assumed): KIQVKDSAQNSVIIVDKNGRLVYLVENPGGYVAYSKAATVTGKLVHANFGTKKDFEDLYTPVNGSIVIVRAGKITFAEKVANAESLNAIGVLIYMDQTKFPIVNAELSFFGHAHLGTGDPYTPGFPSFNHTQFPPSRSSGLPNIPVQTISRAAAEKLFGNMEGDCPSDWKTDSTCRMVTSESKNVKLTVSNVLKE
T1 sequence (P02786 other isoform, or with tags, fused parts or gaps): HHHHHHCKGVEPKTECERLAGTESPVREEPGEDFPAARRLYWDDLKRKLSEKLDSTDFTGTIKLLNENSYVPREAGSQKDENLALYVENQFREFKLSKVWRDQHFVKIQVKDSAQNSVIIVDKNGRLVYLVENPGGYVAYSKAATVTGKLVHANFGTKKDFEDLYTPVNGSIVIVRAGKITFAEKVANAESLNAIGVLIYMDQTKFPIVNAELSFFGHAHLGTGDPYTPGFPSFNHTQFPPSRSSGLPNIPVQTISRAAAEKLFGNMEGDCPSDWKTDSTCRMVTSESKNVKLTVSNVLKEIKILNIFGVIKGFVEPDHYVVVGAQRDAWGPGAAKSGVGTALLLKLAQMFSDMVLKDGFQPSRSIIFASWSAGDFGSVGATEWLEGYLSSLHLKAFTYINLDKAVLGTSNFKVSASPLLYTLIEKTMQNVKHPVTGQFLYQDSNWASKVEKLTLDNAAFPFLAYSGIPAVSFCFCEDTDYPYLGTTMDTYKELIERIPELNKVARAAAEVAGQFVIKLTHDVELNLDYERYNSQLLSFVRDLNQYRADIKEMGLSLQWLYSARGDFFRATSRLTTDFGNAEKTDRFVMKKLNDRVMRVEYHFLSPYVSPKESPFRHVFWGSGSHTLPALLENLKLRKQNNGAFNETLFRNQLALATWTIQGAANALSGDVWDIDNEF

Binder	hCD71, RLU [1]	Apical domain, RLU (CD71 apical domain [2])	hCD71:HSA [3]	apical domain:HSA (CD71 apical domain [4])
SEQ ID NO 153 (designed binder, FN3 domain) MLPAPKNLVVSRVTEDSARLSWTAPDAAFDSFYIAYAEPRPDGEAIALHVPGSERSYDLTGLKPGTEYSVLIHGVKGGLLSSPLSAIFTT	339000 RLU	3.96e+06 RLU	16	186
SEQ ID NO 167 (designed binder, FN3 domain) MLPAPKNLVVSRVTEDSARLSWTAPDAAFDSFFIGYLEPQPPGEAIILGVPGSERSYDLTGLKPGTEYSVLIHGVKGGLLSSPLHAYSTT	4.17e+06 RLU	128000 RLU	23.2	0.7
SEQ ID NO 185 (designed binder, FN3 domain) MLPAPKNLVVSRVTEDSARLSWTAPDAAFDSFYIAYAEPRPDGEAIYLGVPGSERSYDLTGLKPGTEYSVLIHGVKGGLLSSPLRAKFTT	652000 RLU	5.46e+06 RLU	44	369
SEQ ID NO 182 (designed binder, FN3 domain) MLPAPKNLVVSRVTEDSARLSWTAPDAAFDSFYIAYAEPRPDGEAIDLHVPGSERSYDLTGLKPGTEYSVLIHGVKGGLLSSPLHALFTT	197000 RLU	2.84e+06 RLU	14.5	209
SEQ ID NO 175 (designed binder, FN3 domain) MLPAPKNLVVSRVTEDSARLSWTAPDAAFDSFRISYCETFYHGEAIVLTVPGSERSYDLTGLKPGTEYSVLIHGVKGGLLSSPLIAKFTT	4.32e+06 RLU	7.16e+06 RLU	313	519
SEQ ID NO 160 (designed binder, FN3 domain) MLPAPKNLVVSRVTEDSARLSWTAPDAAFDSFYIAYAEPRPDGEAIVLTVPGSERSYDLTGLKPGTEYSVLIHGVKGGLLSSPLLAYFTT	4.46e+06 RLU	8.31e+06 RLU	203	378
SEQ ID NO 189 (designed binder, FN3 domain) MLPAPKNLVVSRVTEDSARLSWTAPDAAFDSFYIAYAEPRPDGEAIQLTVPGSERSYDLTGPKPGTEYWVLIQGVKGGGSSVPLVAYFTT	2.57e+06 RLU	98900 RLU	21.5	0.8
SEQ ID NO 165 (designed binder, FN3 domain) MLPAPKNLVVSRVTEDSARLSWTAPDAAFDSFYIAYAEPRPDGEAIVLQVPGSERSYDLTGLKPGTEYSVLIHGVKGGLLSSPLAAWFTT	4.91e+06 RLU	8.37e+06 RLU	175	299
SEQ ID NO 188 (designed binder, FN3 domain) MLPAPKNLVVSRVTEDSARLSWTAPDAAFDSFYIAYAEPRPDGEAIGLGVPGSERSYDLTGLKPGTEYSVLIHGVKGGLLSSPLDASFTT	358000 RLU	5.24e+06 RLU	13.3	195
SEQ ID NO 159 (designed binder, FN3 domain) MLPAPKNLVVSRVTEDSARLSWTAPDAAFDSFYIAYAEPRPDGEAIYLKVPGSERSYDLTGLKPGTEYSVLIHGVKGGLLSSPLVAHFTT	185000 RLU	4.43e+06 RLU	14.4	345
SEQ ID NO 156 (designed binder, FN3 domain) MLPAPKNLVVSRVTEDSARLSWTAPDAAFDSFYIAYAEPRPDGEAIFLQVPGSERSYDLTGLKPGTEYSVLIHGVKGGLLSSPLAAVFTT	2.46e+06 RLU	6.71e+06 RLU	104	286
SEQ ID NO 183 (designed binder, FN3 domain) MLPAPKNLVVSRVTEDSARLSWTAPDAAFDSFYIAYAEPRPDGEAILLDVPGSERSYDLTGLKPGTEYSVLIHGVKGGFPSMPLSAIFTT	1.13e+06 RLU	6.95e+06 RLU	50.3	310
SEQ ID NO 155 (designed binder, FN3 domain) MLPAPKNLVVSRVTEDSARLSWTAPDAAFDSFYIAYAEPRPDGEAIWLVVPGSERSYDLTGLKPGTEYSVLIHGVKGGLLSSPLHARFTT	513000 RLU	4.86e+06 RLU	27.7	263
SEQ ID NO 180 (designed binder, FN3 domain) MLPAPKNLVVSRVTEDSARLSWTAPDAAFDSFYIAYAEPRPDGEAIALLVPGSERSYDLTGLKPGTEYSVLIHGVKGGLLSSPLVAQFTT	653000 RLU	3.88e+06 RLU	61.6	366
SEQ ID NO 154 (designed binder, FN3 domain) MLPAPKNLVVSRVTEDSARLSWTAPDAAFDSFYIAYAEPRPDGEAIGLWVPGSERSYDLTGLKPGTEYSVLIHGVKGGLLSSPLIAHFTT	779000 RLU	5.54e+06 RLU	33.7	239
SEQ ID NO 186 (designed binder, FN3 domain) MLPAPKNLVVSRVTEDSARLSWTAPDAAFDSFYIAYAEPRPDGEAIQLGVPGSERSYDLTGLKPGTEYSVLIHGVKGGLLSSPLSAIFTT	844000 RLU	5.38e+06 RLU	50.6	322
SEQ ID NO 158 (designed binder, FN3 domain) MLPAPKNLVVSRVTEDSARLSWTAPDAAFDSFYIAYAEPRPDGEAIILQVPGSERSYDLTGLKPGTEYSVLIHGVKGGLLSSPLSAVFTT	4.99e+06 RLU	8.01e+06 RLU	312	500
SEQ ID NO 164 (designed binder, FN3 domain) MLPAPKNLVVSRVTEDSARLSWTAPDAAFDSFYIAYAEPRPDGEAIILRVPGSERSYDLTGLKPGTEYSVLIHGVKGGLLSSPLVAIFTT	3.78e+06 RLU	8.42e+06 RLU	147	328
SEQ ID NO 179 (designed binder, FN3 domain) MLPAPKNLVVSRVTEDSARLSWTAPDAAFDSFPIAYAEPRPDGEAIVLTVPGSERSYDLTGLKPGTEYSVLIHGVKGGLLSSPLSAFFTT	3.68e+06 RLU	7.29e+06 RLU	127	252
SEQ ID NO 178 (designed binder, FN3 domain) MLPAPKNLVVSRVTEDSARLSWTAPDAAFDSFYIAYAEPRPDGEAIQLQVPGSERSYDLTGLKPGTEYSVLIHGVKGGLLSSPLSAIVTT	865000 RLU	4.95e+06 RLU	45	257
SEQ ID NO 171 (designed binder, FN3 domain) MLPAPKNLVVSRVTEDSARLSWTAPDAAFDSFYIAYAEPRPDGEAIQLWVPGSERSYDLTGLKPGTEYSVLIHGVKGGLLSSPLDAYFTT	653000 RLU	5.48e+06 RLU	35.3	296
SEQ ID NO 157 (designed binder, FN3 domain) MLPAPKNLVVSRVTEDSARLSWTAPDAAFDSFYIAYAEPRPDGEAILLHVPGSERSYDLTGLKPGTEYSVLIHGVKGGLLSSPLSAISTT	3.61e+06 RLU	7.39e+06 RLU	94.9	194
SEQ ID NO 166 (designed binder, FN3 domain) MLPAPKNLVVSRVTEDSARLSWTAPDAAFDSFYIAYAEPRPDGEAIFLQVPGSERSYDLTGLKPGTEYSVLIHGVKGGLLSSPLNAFFTT	1.22e+06 RLU	6.08e+06 RLU	34	170
SEQ ID NO 169 (designed binder, FN3 domain) MLPAPKNLVVSRVTEDSARLSWTAPDAAFDSFYIAYAEPRPDGEAILLLVPGSERSYDLTGLKPGTEYSVLIHGVKGGLLSSPLSAVFTT	4.14e+06 RLU	7.21e+06 RLU	241	420
SEQ ID NO 170 (designed binder, FN3 domain) MLPAPKNLVVSRVTEDSARLSWTAPDAAFDSFYIAYAEPRPDGEAIHLLVPGSERSYDLTGLKPGTEYSVLIHGVKGGLLSSPLLAHFTT	814000 RLU	4.86e+06 RLU	19.6	117
